Assay results reported in patent US20090221530A1, “Relaxase Modulators and Methods of Using Same” (priority 2005, published 2009).

Columns and labels:
Experiment in all cases: cleavage_in_vitro
[1] = system: TraI D81N D81N (Escherichia coli F plasmid); details: crossover 10%; in vivo transfer 0.0030%; printed DB1N in table; 6 mM MgCl2, 37 C
[2] = system: TraI H159E H159E (Escherichia coli F plasmid); details: crossover eliminated per text (nd in table); in vivo transfer 0.0010%; 6 mM MgCl2, 37 C
[3] = system: TraI H159Q H159Q (Escherichia coli F plasmid); details: crossover 95%; text calls this no change; 6 mM MgCl2, 37 C
[4] = system: TraI K265M K265M (Escherichia coli F plasmid); details: in vivo transfer 59%; 6 mM MgCl2, 37 C
[5] = system: TraI wild-type (full length or N300) (Escherichia coli F plasmid); details: crossover 100%; 6 mM MgCl2, 150 mM NaCl, pH 7.5, 37 C

Substance: oriT 22-mer
- activity (% of WT cleavage) [1]: 53
- activity (% of WT cleavage) [2]: 8.5
- activity (% of WT cleavage) [3]: 55
- activity (% of WT cleavage) [4]: 100
- activity [5]: 100 % cleavage
